Experimental data taken from patent US20210147570A1.

What was measured:
[1] = molecular target: human CD73 (cell-surface) (human) (UniProt P21589); experiment: CD73 binding in cell lines (human), median EC50; method not stated
[2] = molecular target: human CD73 (cell-surface) (human) (UniProt P21589); experiment: cell-based or functional assay
[3] = molecular target: human CD73 (cell-surface) (human) (UniProt P21589); experiment: CD73 binding in cell lines (human), EC50 range; method not stated

Chain of human CD73 (cell-surface) (human) (P21589 27-549): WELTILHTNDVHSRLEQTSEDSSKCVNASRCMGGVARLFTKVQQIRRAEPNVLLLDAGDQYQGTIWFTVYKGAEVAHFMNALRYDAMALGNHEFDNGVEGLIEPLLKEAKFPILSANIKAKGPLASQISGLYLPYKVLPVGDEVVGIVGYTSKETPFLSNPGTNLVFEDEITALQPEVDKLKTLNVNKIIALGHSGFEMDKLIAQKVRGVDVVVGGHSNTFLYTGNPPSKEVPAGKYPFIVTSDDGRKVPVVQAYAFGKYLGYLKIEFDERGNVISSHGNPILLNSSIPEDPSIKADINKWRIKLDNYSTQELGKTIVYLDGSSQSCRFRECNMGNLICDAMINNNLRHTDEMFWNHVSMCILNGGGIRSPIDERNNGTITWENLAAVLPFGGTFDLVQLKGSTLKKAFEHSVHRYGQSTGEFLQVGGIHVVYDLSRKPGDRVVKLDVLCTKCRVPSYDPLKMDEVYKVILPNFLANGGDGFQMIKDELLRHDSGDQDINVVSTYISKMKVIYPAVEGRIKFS

B1: CD73.4-IgG2C219S.IgG1.1f (antibody, V domains shown)
VH: QVQLVESGGGVVQPGRSLRLSCAASGFTFSNYGMHWVRQAPGKGLEWVAVILYDGSNKYYPDSVKGRFTISRDNSKNTLYLQMNSLRAEDTAVYYCARGGSSWYPDSFDIWGQGTMVTVSS
VL: DIQMTQSPSSLSASVGDRVTITCRASQGISSWLAWYQQKPEKAPKSLIYAASSLQSGVPSRFSGSGSGTDFTLTISSLQPEDFATYYCQQYNSYPLTFGGGTKVEIKR
EC50 [1]: 0.5 nM | Cellular Enzyme Inhibition (blockade of AMP processing), median EC50 [2]: 0.39 nM | Internalization, max level [2]: 97.5% | Internalization, median EC50 [2]: 1.2 nM | EC50 [3]: 0.3 to 0.67 nM
